Results: PMC11475706, “ProEnd: a comprehensive database for identifying HbYX motif-containing proteins across the tree of life” (BMC Genomics, 2024)

Molecular target: T1, PAN-2 (MJ1494), HbYX ATPase from Methanocaldococcus jannaschii (Methanocaldococcus jannaschii, UniProt Q58889 1-371)
T1 construct: PAN-2 (MJ1494), Methanocaldococcus jannaschii, UniProt Q58889; The hexameric state is only an AlphaFold Multimer prediction, not a measurement; also called putative 26S proteasome regulatory subunit; source: E. coli BL21 star DE3 (pET-28a(+), IPTG), held on Ni-NTA agarose from clarified lysate and washed; not shown: His6, N-terminal, kept
T1 sequence (looked up): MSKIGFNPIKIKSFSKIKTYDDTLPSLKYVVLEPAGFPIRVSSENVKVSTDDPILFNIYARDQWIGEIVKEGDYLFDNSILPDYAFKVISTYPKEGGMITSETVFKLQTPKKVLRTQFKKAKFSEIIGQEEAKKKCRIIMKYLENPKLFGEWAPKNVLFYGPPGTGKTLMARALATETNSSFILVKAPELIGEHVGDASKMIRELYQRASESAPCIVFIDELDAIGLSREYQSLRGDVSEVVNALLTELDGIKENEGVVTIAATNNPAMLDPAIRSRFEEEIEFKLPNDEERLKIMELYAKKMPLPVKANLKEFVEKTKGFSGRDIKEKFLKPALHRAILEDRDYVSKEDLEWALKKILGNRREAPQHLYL
Experiment: pull-down; 6His-PAN-2 held on Ni-NTA agarose, washed with 50 mM Tris, 100 mM NaCl, 2 mM ATP, 10 mM MgCl2; tagless T20S incubated 20 min at room temperature; washed; eluted with 150 mM imidazole; T20S in the eluate quantified by suc-LLVY-amc hydrolysis; control: Ni-NTA columns with T20S alone
Settings: both partners purified

fold T20S pulled down against control Ni-NTA columns: 7 fold
B1: T20S proteasome (20S from Thermoplasma acidophilum) (complex)
chain 1: MQQGQMAYDRAITVFSPDGRLFQVEYAREAVKKGSTALGMKFANGVLLISDKKVRSRLIEQNSIEKIQLIDDYVAAVTSGLVADARVLVDFARISAQQEKVTYGSLVNIENLVKRVADQMQQYTQYGGVRPYGVSLIFAGIDQIGPRLFDCDPAGTINEYKATAIGSGKDAVVSFLEREYKENLPEKEAVTLGIKALKSSLEEGEELKAPEIASITVGNKYRIYDQEEVKKFL
chain 2: TTTVGITLKDAVIMATERRVTMENFIMHKNGKKLFQIDTYTGMTIAGLVGDAQVLVRYMKAELELYRLQRRVNMPIEAVATLLSNMLNQVKYMPYMVQLLVGGIDTAPHVFSIDAAGGSVEDIYASTGSGSPFVYGVLESQYSEKMTVDEGVDLVIRAISAAKQRDSASGGMIDVAVITRKDGYVQLPTDQIESRIRKLGLIL
notes: proteasome subunit alpha, Thermoplasma acidophilum; proteasome subunit beta, Thermoplasma acidophilum; The C-terminal 6His tag on the beta subunits is preceded by a TEV site, so residues of that site probably stay at the beta C-terminus after the cut (surmise); also called archaeal proteasome T20S; archaeal 20S proteasome; source: recombinant, expressed from pET-28a(+), purified (Ni-NTA, TEV cut, …)
